From the supplement of paper PMC11316812
± gives the standard deviation of the averaged measurements.

Columns and labels:
[1] = tested on: hTERT-HMEC; assay: percentage of EdU-negative (G0-arrested) nuclei per well, 72 h; higher = more G0 arrest; settings: reference: sequence is the full UniProt precursor, the tested protein was the secreted form or ectodomain
[2] = tested on: MCF7; assay: as above; settings: reference: sequence is the full UniProt precursor, the tested protein was the secreted form or ectodomain
[3] = protein concentration 0.0225 µM
[4] = protein concentration 0.0135 µM
[5] = protein concentration 0.0155 µM
[6] = protein concentration 0.00875 µM
[7] = protein concentration 0.0875 µM
[8] = protein concentration 0.03125 µM
[9] = protein concentration 0.3125 µM
[10] = protein concentration 0.0357143 µM
[11] = protein concentration 0.357143 µM
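Further: secreted proteins added to cultured cells, EdU pulse at the end, nuclei found by Hoechst imaging, EdU status from nuclear versus surrounding ring intensity ratio, PBS as neutral control.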

| Sequence | percentage of EdU-negative [1, 3] [%] | percentage of EdU-negative ([1]; protein concentration 0.225 µM) [%] | percentage of EdU-negative [2, 3] [%] | percentage of EdU-negative ([2]; protein concentration 0.225 µM) [%] | also measured |
| --- | --- | --- | --- | --- | --- |
| MLRAALPALLLPLLGLAAAAVADCPSSTWIQFQDSCYIFLQEAIKVESIEDVRNQCTDHGADMISIHNEEENAFILDTLKKQWKGPDDILLGMFYDTDDASFKWFDNSNMTFDKWTDQDDDEDLVDTCAFLHIKTGEWKKGNCEVSSVEGTLCKTAIPYKRKYLSDNHILISALVIASTVILTVLGAIIWFLYKKHSDSRFTTVFSTAPQSPYNEDCVLVVGEENEYPVQFD [Q8IX05] | 4.48 ± 0.56 | 5.29 ± 0.55 | 25.83 ± 0.12 | 25.38 ± 0.14 |  |
| MLRAGWLRGAAALALLLAARVVAAFEPITVGLAIGAASAITGYLSYNDIYCRFAECCREERPLNASALKLDLEEKLFGQHLATEVIFKALTGFRNNKNPKKPLTLSLHGWAGTGKNFVSQIVAENLHPKGLKSNFVHLFVSTLHFPHEQKIKLYQDQLQKWIRGNVSACANSVFIFDEMDKLHPGIIDAIKPFLDYYEQVDGVSYRKAIFIFLSNAGGDLITKTALDFWRAGRKREDIQLKDLEPVLSVGVFNNKHSGLWHSGLIDKNLIDYFIPFLPLEYRHVKMCVRAEMRARGSAIDEDIVTRVAEEMTFFPRDEKIYSDKGCKTVQSRLDFH |  |  |  |  | percentage of EdU-negative ([1]; protein concentration 0.005 µM): 5.1 ± 0.71%; percentage of EdU-negative ([1]; protein concentration 0.05 µM): 6.38 ± 0.16%; percentage of EdU-negative ([2]; protein concentration 0.005 µM): 27.8 ± 1%; percentage of EdU-negative ([2]; protein concentration 0.05 µM): 24.9 ± 1.3% |
| MLRFYLFISLLCLSRSDAEETCPSFTRLSFHSAVVGTGLNVRLMLYTRKNLTCAQTINSSAFGNLNVTKKTTFIVHGFRPTGSPPVWMDDLVKGLLSVEDMNVVVVDWNRGATTLIYTHASSKTRKVAMVLKEFIDQMLAEGASLDDIYMIGVSLGAHISGFVGEMYDGWLGRITGLDPAGPLFNGKPHQDRLDPSDAQFVDVIHSDTDALGYKEPLGNIDFYPNGGLDQPGCPKTILGGFQYFKCDHQRSVYLYLSSLRESCTITAYPCDSYQDYRNGKCVSCGTSQKESCPLLGYYADNWKDHLRGKDPPMTKAFFDTAEESPFCMYHYFVDIITWNKNVRRGDITIKLRDKAGNTTESKINHEPTTFQKYHQVSLLARFNQDLDKVAAISLMFSTGSLIGPRYKLRILRMKLRSLAHPERPQLCRYDLVLMENVETVFQPILCPELQL [Q8WWY8] |  |  |  |  | percentage of EdU-negative [1, 4]: 5.39 ± 1.9%; percentage of EdU-negative ([1]; protein concentration 0.135 µM): 14.6 ± 3%; percentage of EdU-negative [2, 4]: 25.5 ± 2.4%; percentage of EdU-negative ([2]; protein concentration 0.135 µM): 29.4 ± 2.3% |
| MLRGISQLPAVATMSWVLLPVLWLIVQTQAIAIKQTPELTLHEIVCPKKLHILHKREIKNNQTEKHGKEERYEPEVQYQMILNGEEIILSLQKTKHLLGPDYTETLYSPRGEEITTKPENMEHCYYKGNILNEKNSVASISTCDGLRGYFTHHHQRYQIKPLKSTDEKEHAVFTSNQEEQDPANHTCGVKSTDGKQGPIRISRSLKSPEKEDFLRAQKYIDLYLVLDNAFYKNYNENLTLIRSFVFDVMNLLNVIYNTIDVQVALVGMEIWSDGDKIKVVPSASTTFDNFLRWHSSNLGKKIHDHAQLLSGISFNNRRVGLAASNSLCSPSSVAVIEAKKKNNVALVGVMSHELGHVLGMPDVPFNTKCPSGSCVMNQYLSSKFPKDFSTSCRAHFERYLLSQKPKCLLQAPIPTNIMTTPVCGNHLLEVGEDCDCGSPKECTNLCCEALTCKLKPGTDCGGDAPNHTTE | 4.82 ± 0.43 | 12.07 ± 0.12 | 25.9 ± 0.54 | 27.7 ± 1.7 |  |
| MLRGTLLCAVLGLLRAQPFPCPPACKCVFRDAAQCSGGDVARISALGLPTNLTHILLFGMGRGVLQSQSFSGMTVLQRLMISDSHISAVAPGTFSDLIKLKTLRLSRNKITHLPGALLDKMVLLEQLFLDHNALRGIDQNMFQKLVNLQELALNQNQLDFLPASLFTNLENLKLLDLSGNNLTHLPKGLLGAQAKLERLLLHSNRLVSLDSGLLNSLGALTELQFHRNHIRSIAPGAFDRLPNLSSLTLSRNHLAFLPSALFLHSHNLTLLTLFENPLAELPGVLFGEMGGLQELWLNRTQLRTLPAAAFRNLSRLRYLGVTLSPRLSALPQGAFQGLGELQVLALHSNGLTALPDGLLRGLGKLRQVSLRRNRLRALPRALFRNLSSLESVQLDHNQLETLPGDVFGALPRLTEVLLGHNSWRCDCGLGPFLGWLRQHLGLVGGEEPPRCAGPGAHAGLPLWALPGGDAECPGPRGPPPRPAADSSSEAPVHPALAPNSSEPWVWAQPVTTGKGQDHSPFWGFYFLLLAVQAMITVIIVFAMIKIGQLFRKLIRERALG |  |  |  |  | percentage of EdU-negative [1, 5]: 4.92 ± 0.41%; percentage of EdU-negative ([1]; protein concentration 0.155 µM): 9.145 ± 0.063%; percentage of EdU-negative [2, 5]: 24.8 ± 4.1%; percentage of EdU-negative ([2]; protein concentration 0.155 µM): 32.8 ± 1.1% |
| MLRKGCCVELLLLLVAAELPLGGGCPRDCVCYPAPMTVSCQAHNFAAIPEGIPVDSERVFLQNNRIGLLQPGHFSPAMVTLWIYSNNITYIHPSTFEGFVHLEELDLGDNRQLRTLAPETFQGLVKLHALYLYKCGLSALPAGVFGGLHSLQYLYLQDNHIEYLQDDIFVDLVNLSHLFLHGNKLWSLGPGTFRGLVNLDRLLLHENQLQWVHHKAFHDLRRLTTLFLFNNSLSELQGECLAPLGALEFLRLNGNPWDCGCRARSLWEWLQRFRGSSSAVPCVSPGLRHGQDLKLLRAEDFRNCTGPASPHQIKSHTLTTTDRAARKEHHSPHGPTRSKGHPHGPRPGHRKPGKNCTNPRNRNQISKAGAGKQAPELPDYAPDYQHKFSFDIMPTARPKRKGKCARRTPIRAPSGVQQASSASSLGASLLAWTLGLAVTLR [Q86UN2] |  |  |  |  | percentage of EdU-negative [1, 6]: 5.4 ± 1%; percentage of EdU-negative [1, 7]: 5.31 ± 0.34%; percentage of EdU-negative [2, 6]: 26.2 ± 0.18%; percentage of EdU-negative [2, 7]: 28.6 ± 1.4% |
| MLRLYVLVMGVSAFTLQPAAHTGAARSCRFRGRHYKREFRLEGEPVALRCPQVPYWLWASVSPRINLTWHKNDSARTVPGEEETRMWAQDGALWLLPALQEDSGTYVCTTRNASYCDKMSIELRVFENTDAFLPFISYPQILTLSTSGVLVCPDLSEFTRDKTDVKIQWYKDSLLLDKDNEKFLSVRGTTHLLVHDVALEDAGYYRCVLTFAHEGQQYNITRSIELRIKKKKEETIPVIISPLKTISASLGSRLTIPCKVFLGTGTPLTTMLWWTANDTHIESAYPGGRVTEGPRQEYSENNENYIEVPLIFDPVTREDLHMDFKCVVHNTLSFQTLRTTVKEASSTFSWGIVLAPLSLAFLVLGGIWMHRRCKHRTGKADGLTVLWPHHQDFQSYPK | 5.09 ± 0.47 | 9.76 ± 1.8 | 25.1 ± 1.5 | 30.8 ± 0.31 |  |
| MLRMRVPALLVLLFCFRGRAGPSPHFLQQPEDLVVLLGEEARLPCALGAYWGLVQWTKSGLALGGQRDLPGWSRYWISGNAANGQHDLHIRPVELEDEASYECQATQAGLRSRPAQLHVLVPPEAPQVLGGPSVSLVAGVPANLTCRSRGDARPTPELLWFRDGVLLDGATFHQTLLKEGTPGSVESTLTLTPFSHDDGATFVCRARSQALPTGRDTAITLSLQYPPEVTLSASPHTVQEGEKVIFLCQATAQPPVTGYRWAKGGSPVLGARGPRLEVVADASFLTEPVSCEVSNAVGSANRSTALDVLFGPILQAKPEPVSVDVGEDASFSCAWRGNPLPRVTWTRRGGAQVLGSGATLRLPSVGPEDAGDYVCRAEAGLSGLRGGAAEARLTVNAPPVVTALHSAPAFLRGPARLQCLVFASPAPDAVVWSWDEGFLEAGSQGRFLVETFPAPESRGGLGPGLISVLHISGTQESDFSRSFNCSARNRLGEGGAQASLGRRDLLPTVRIVAGVAAATTTLLMVITGVALCCWRHSKASASFSEQKNLMRIPGSSDGSSSRGPEEEETGSREDRGPIVHTDHSDLVLEEEGTLETKDPTNGYYKVRGVSVSLSLGEAPGGGLFLPPPSPLGPPGTPTFYDFNPHLGMVPPCRLYRARAGYLTTPHPRAFTSYIKPTSFGPPDLAPGTPPFPYAAFPTPSHPRLQTHV [Q6UWL6] | 5.24 ± 0.16 | 5.69 ± 0.77 | 26.9 ± 3.4 | 28.2 ± 1.2 |  |
| MLRRRGSPGMGVHVGAALGALWFCLTGALEVQVPEDPVVALVGTDATLCCSFSPEPGFSLAQLNLIWQLTDTKQLVHSFAEGQDQGSAYANRTALFPDLLAQGNASLRLQRVRVADEGSFTCFVSIRDFGSAAVSLQVAAPYSKPSMTLEPNKDLRPGDTVTITCSSYQGYPEAEVFWQDGQGVPLTGNVTTSQMANEQGLFDVHSILRVVLGANGTYSCLVRNPVLQQDAHSSVTITPQRSPTGAVEVQVPEDPVVALVGTDATLRCSFSPEPGFSLAQLNLIWQLTDTKQLVHSFTEGRDQGSAYANRTALFPDLLAQGNASLRLQRVRVADEGSFTCFVSIRDFGSAAVSLQVAAPYSKPSMTLEPNKDLRPGDTVTITCSSYRGYPEAEVFWQDGQGVPLTGNVTTSQMANEQGLFDVHSVLRVVLGANGTYSCLVRNPVLQQDAHGSVTITGQPMTFPPEALWVTVGLSVCLIALLVALAFVCWRKIKQSCEEENAGAEDQDGEGEGSKTALQPLKHSDSKEDDGQEIA [Q5ZPR3] |  |  |  |  | percentage of EdU-negative ([1]; protein concentration 0.019 µM): 5.89 ± 0.34%; percentage of EdU-negative ([1]; protein concentration 0.19 µM): 9.74 ± 0.48%; percentage of EdU-negative ([2]; protein concentration 0.019 µM): 24.4 ± 2.3%; percentage of EdU-negative ([2]; protein concentration 0.19 µM): 27.33 ± 0.26% |
| MLSCRLQCALAALSIVLALGCVTGAPSDPRLRQFLQKSLAAAAGKQELAKYFLAELLSEPNQTENDALEPEDLSQAAEQDEMRLELQRSANSNPAMAPRERKAGCKNFFWKTFTSC |  |  |  |  | percentage of EdU-negative [1, 8]: 5.72 ± 0.93%; percentage of EdU-negative [1, 9]: 4.88 ± 0.35%; percentage of EdU-negative [2, 8]: 25.9 ± 3.1%; percentage of EdU-negative [2, 9]: 27 ± 1.9% |
| MLSGRLVLGLVSMAGRVCLCQGSAGSGAIGPVEAAIRTKLEEALSPEVLELRNESGGHAVPPGSETHFRVAVVSSRFEGLSPLQRHRLVHAALAEELGGPVHALAIQARTPAQWRENSQLDTSPPCLGGNKKTLGTP [Q9Y3E2] | 5.42 ± 0.18 | 5.59 ± 0.52 | 28 ± 1.9 | 27.3 ± 2.5 |  |
| MLSSVVFWGLIALIGTSRGSYPFSHSMKPHLHPRLYHGCYGDIMTMKTSGATCDANSVMNCGIRGSEMFAEMDLRAIKPYQTLIKEVGQRHCVDPAVIAAIISRESHGGSVLQDGWDHRGLKFGLMQLDKQTYHPVGAWDSKEHLSQATGILTERIKAIQKKFPTWSVAQHLKGGLSAFKSGIEAIATPSDIDNDFVNDIIARAKFYKRQSF [Q86SG7] | 4.33 ± 0.76 | 5.09 ± 0.33 | 27.3 ± 1.4 | 25.6 ± 2.5 |  |
| MLTRLVLSAHLSSTTSPPWTHAAISWELDNVLMPSPRIWPQVTPTGRSASVRSEGNTSSLWNFSAGQDVHAIVTRTCESVLSSAVYTHGCGCVRSATNITCQSSGQQRQAARQEEENSICKAHDSREGRLGYPLSAHQPGSGGPN [Q8TAV5] | 5.652 ± 0.04 | 12.7 ± 0.25 | 24.95 ± 0.064 | 26 ± 2.6 |  |
| MLTTLLPILLLSGWAFCSQDASDGLQRLHMLQISYFRDPYHVWYQGNASLGGHLTHVLEGPDTNTTIIQLQPLQEPESWARTQSGLQSYLLQFHGLVRLVHQERTLAFPLTIRCFLGCELPPEGSRAHVFFEVAVNGSSFVSFRPERALWQADTQVTSGVVTFTLQQLNAYNRTRYELREFLEDTCVQYVQKHISAENTKGSQTSRSYTSLVLGVLVGSFIIAGVAVGIFLCTGGRRC [Q9UNN8] |  |  |  |  | percentage of EdU-negative [1, 10]: 4.92 ± 0.17%; percentage of EdU-negative [1, 11]: 6.22 ± 0.072%; percentage of EdU-negative [2, 10]: 24.2 ± 1.7%; percentage of EdU-negative [2, 11]: 25.3 ± 1.2% |
